What was measured:
THP-1 cells [1] = test: Western blot of cytokine protein levels in transfected THP-1 cells (FIG. 6d); assay type: cell-based, human; conditions: overexpression in THP-1 cells
Source text: (§1) Since both LITAF and STAT6(B) were found in the nucleus (FIG. 5), it was further investigated whether they act separately or in concert in mediating activation of TNF-α. While studying the complex, a cytokine array was employed to look at effects on other cytokines (FIG. 6a-6c.). The assay was preformed as follows. Using an empty vector as a control (FIG. 6b1), DNA of LITAF (full length, FIG. 6b2), STAT6(B) (full length; FIG. 6b3) or both full length of LITAF+STAT6(B) (FIG. 6b4), respectively, was transfected or co-transfected into THP-1 cells. Conditioned medium from each treated cell type was then prepared and incubated with membranes containing an array of 44 human protein cytokine antibodies (FIG. 6a). Autoradiographs were scanned, and the density of each cytokine at the corresponding position was determined. […] The relative intensities of each cytokine were normalized to control spots on the same membrane. Major increases or decreases among cytokines are represented graphically in FIG. 6c. […] In order to confirm these findings at the protein level we selected the four most strongly affected cytokines, IL-1α, IL-10, MCP-2 and RANTES and, under the same experimental conditions, measured their protein levels by Western blots.

VEGF promoter = VEGF promoter activity / VEGF expression in transfected U2OS cells; assay type: cell-based, human; conditions: transient transfection into U2OS cells with pcVEGF or pEVEGF
Description: To determine that this activation occurred at the transcriptional level, VEGF promoter activity assays were performed. A full length VEGF sequence, with or without its enhancer element (−2040˜+1), named pcVEGF or pEVEGF, was cloned into pcDNA3 plasmid. The cloned DNA with LITAF and/or STAT6(B) DNAs were transiently co-transfected into U2OS cells as described in FIG. 11a.

MCP-1 promoter = test: Luciferase assay of MCP-1 promoter activity after transient transfection (FIG. 16); assay type: cell-based
Source text: To show this hypothesis, monocyte chemoattractant protein-1 (MCP-1), an important component of the inflammatory process, is selected to determine whether its LPS-triggered transcriptional regulation parallels observations for TNF. Recent studies have shown that the MCP-1 promoter activity can be regulated by NF-KB, STAT1, CEB/P homologous protein (CHOP), heme oxygenase-1 (HO-1) or activated protein C (APC) (Kim, et al, Clin Exp Immunol, 140:450-460, 2005; Jaruga, et al., Am J Physiol Gastrointest Liver Physiol, 287:G471-479, 2004, Abraham, et al., J Neuroimmunol, 160:219-221, 2005; Kanakiriya, et al., Am J Physiol Renal Physiol, 284:F:546-554, 2003). However, the precise LPS signaling pathways leading to MCP-1 induction have not been fully identified. In Examples 1-3, above, the regulation of LPS-induced inflammatory cytokine expression was shown. […] Thus, CTCCC represents a specific sequence in cytokine promoters to which LITAF binds for activity. […] Thus, short peptides with amino acids designed and synthesized based on the potential binding domain of LITAF and STAT6(B) jointly enhance MCP-1 promoter activity.

TNF-α promoter = TNF-α promoter luciferase assay in transfected U2OS cells; assay type: cell-based, human; conditions: transfection alone
Description: In order to characterize the functional importance of LITAF in the LITAF/STAT6(B) complex, the effect of the complex was examined, with and without silenced LITAF, on TNF-α promoter activity. U2OS cells containing the TNF-promoter linked to luciferase were transiently transfected with LITAF alone, STAT6(B) alone, or both DNAs as described. TNF-α promoter activity was analyzed via luciferase activity. […] The TNF-α concentrations in the supernatants of these transfected THP-1 cells was also measured. […] They further indicate that LITAF might play a leading role in cytokine regulation after the LITAF-STAT6(B) complex translocates to the nucleus in the cells.

THP-1 cells [2] = test: Human cytokine antibody array of conditioned medium from transfected THP-1 cells; assay type: cell-based; conditions: single transfection
Source text: as §1

[3] = tested on: Porcine aortic endothelial (PAE) cells expressing VEGFR-2 spheroids; test: In vitro angiogenesis/tubulogenesis assay with supernatants of transfected THP-1 cells; assay type: cell-based; conditions: supernatant from transfected THP-1 cells, 2 days
Description: In Vitro Angiogenesis/Tubulogenesis assay of VEGF. To expand the observations that STAT6(B) is a potent stimulator of VEGF, and that the LITAF-STAT6(B) complex is inhibitory, culture supernatant fluids of LITAF-, STAT6(B)- or LITAF-STAT6(B)-transfected THP1 cells were tested in an in vitro angiogenesis/tubulogenesis assay. The assay was preformed as follows. Porcine aortic endothelial (PAE) cells expressing VEGFR-2 spheroids were generated as described in the art (Mayer and Rahimi, Ann. NY Acad. Sci, 995:200-207, 2003). A defined number of cells were suspended in DMEM containing 1% fetal bovine serum and 0-0.24% (w/v) carboxymethylcellulose (4000 centipoise) in non-adherent round-bottom 96-well plates under standard cell culture conditions. After 24 hours all cells formed one single spheroid per well (about 750 cells/spheroid). Spheroids were cultured for 2 days before using them in the in vitro angiogenesis assay in the following manner Spheroids containing about 750 cells were embedded in collagen gels. Eight volumes of collagen were mixed with 1 volume of 10×HEPES-buffered saline solution containing 10% 10×DMEM with phenol red. […]
It was determined whether VEGF, induced by STAT6(B), was active and capable of inducing angiogenesis and that the LITAF-STAT6(B) complex effect would inhibit this activity. […]

| MCP-1 promoter activity / MCP-1 expression (MCP-1 promoter) | Molecule | protein levels of IL-1α, IL-10, MCP-2 and RANTES by Western blot (THP-1 cells [1]) | VEGF gene expression / transcription (VEGF promoter) | TNF-α promoter luciferase activity (TNF-α promoter) | effect on GRO (cytokine array) (THP-1 cells [2]) | effect on IL-1α (cytokine array) (THP-1 cells [2]) | effect on IL-10 (cytokine array) (THP-1 cells [2]) | effect on RANTES (cytokine array) (THP-1 cells [2]) | in vitro angiogenesis/tubulogenesis [3] | effect on TNF-α (cytokine array) (THP-1 cells [2]) |
| --- | --- | --- | --- | --- | --- | --- | --- | --- | --- | --- |
|  | STAT6(A): known gene STAT6 (GenBank), referred to as STAT6(A) in this study (protein, UniProt P42226 2-847, looked up) Signal transducer and …: SLWGLVSKMPPEKVQRLYVDFPQHLRHLLGDWLESQPWEFLVGSDAFCCNLASALLSDTVQHLQASVGEQGEGSTILQHISTLESIYQRDPLKLVATFRQILQGEKKAVMEQFRHLPMPFHWKQEELKFKTGLRRLQHRVGEIHLLREALQKGAEAGQVSLHSLIETPANGTGPSEALAMLLQETTGELEAAKALVLKRIQIWKRQQQLAGNGAPFEESLAPLQERCESLVDIYSQLQQEVGAAGGELEPKTRASLTGRLDEVLRTLVTSCFLVEKQPPQVLKTQTKFQAGVRFLLGLRFLGAPAKPPLVRADMVTEKQARELSVPQGPGAGAESTGEIINNTVPLENSIPGNCCSALFKNLLLKKIKRCERKGTESVTEEKCAVLFSASFTLGPGKLPIQLQALSLPLVVIVHGNQDNNAKATILWDNAFSEMDRVPFVVAERVPWEKMCETLNLKFMAEVGTNRGLLPEHFLFLAQKIFNDNSLSMEAFQHRSVSWSQFNKEILLGRGFTFWQWFDGVLDLTKRCLRSYWSDRLIIGFISKQYVTSLLLNEPDGTFLLRFSDSEIGGITIAHVIRGQDGSPQIENIQPFSAKDLSIRSLGDRIRDLAQLKNLYPKKPKDEAFRSHYKPEQMGKDGRGYVPATIKMTVERDQPLPTPELQMPTMVPSYDLGMAPDSSMSMQLGPDMVPQVYPPHSHSIPPYQGLSPEESVNVLSAFQEPHLQMPPSLGQMSLPFDQPHPQGLLPCQPQEHAVSSPDPLLCSDVTMVEDSCLSQPVTAFPQGTWIGEDIFPPLLPPTEQDLTKLLLEGQGESGGGSLGAQPLLQPSHYGQSGISMSHMDLRANPSW | not altered |  |  |  |  |  |  |  |  |
| significantly up-regulated | STAT6(B): novel protein, Signal transducer and activator of transcription, SEQ ID NO: 2; full length DNA transfected (protein, listed as Homo sapiens) MARRNPSPPLQRLRDWGHHHCPCHPGPGWLSTDGEHPAILCQRPVHSLTGGPNPGSCSAQKSLSQEAQGGGFPEPLQAWAGTGCSDSFLSPTSSLLPAALLSLPVCHPDVTPYFIAVLLLLPHDPCPPFPPPFLPNPRALHGCLFLLTTAEQMGKDGRGYVPATIKMTVERGVWWYGQWVGQGLVVLICRKEGWHQPLVSHMYLLPSSRDQPLPTPELQMPTMVPSYDLGMAPDSSMSMQLGPDMVPQVYPPHSHSIPPYQGLSPEESVNVLSAFQEPHLQMPPSLGQMSLSFDQPHPQGLLPCQPQEHAVSSPDPLLCSDVTTVEDSCLSQPVTAFPQGTWIGEDIFPPLLPPTEQDLTKLLLEGQGESGGGSLGAQPLLQPSHYGQSGISMSHMDLRANPSW | modest induction of all except MCP-2 | significantly upregulated | did not substantially change | up-regulated | up-regulated | up-regulated | up-regulated | stimulated |  |
| significantly up-regulated | LITAF: LPS-induced TNF-α factor, SEQ ID NO: 1; full length DNA transfected for overexpression (protein, listed as Homo sapiens) MSVPGPYQAATGPSSAPSAPPSYEETVAVNSYYPTPPAPMPGPTTGLVTGPDGKGMNPPSYYTQPAPIPNNNPITVQTVYVQHPITFLDRPIQMCCPSCNKMIVSQLSYNAGALTWLSCGSLCLLGVHSGLLLHPLLRGCPAGRGPLLSQLQSSPGHLQAFVGLSQTQREPGAAGSPFHLSSSFTPGGGSALVVSPLQGAHLHVFFWGEYVAKLTNLQTPEIAAWSRA | not altered | did not have any effect |  |  | modestly up-regulated |  |  |  | modestly up-regulated |
